Test results as given in IntAct's records for PubMed 31515488.

B1: Dynein light chain 2, cytoplasmic (Homo sapiens), Q96FJ2 (parent)
chain: MSDRKAVIKNADMSEDMQQDAVDCATQAMEKYNIEKDIAAYIKKEFDKKYNPTWHCIVGRNFGSYVTHETKHFIYFYLGQVAILLFKSG
partner: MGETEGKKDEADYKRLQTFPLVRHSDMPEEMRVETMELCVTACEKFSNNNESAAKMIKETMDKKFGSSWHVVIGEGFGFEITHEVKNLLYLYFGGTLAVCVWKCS
B2: Zinc finger protein RFP (Homo sapiens), P14373 (parent)
chain: MASGSVAECLQQETTCPVCLQYFAEPMMLDCGHNICCACLARCWGTAETNVSCPQCRETFPQRHMRPNRHLANVTQLVKQLRTERPSGPGGEMGVCEKHREPLKLYCEEDQMPICVVCDRSREHRGHSVLPLEEAVEGFKEQIQNQLDHLKRVKDLKKRRRAQGEQARAELLSLTQMEREKIVWEFEQLYHSLKEHEYRLLARLEELDLAIYNSINGAITQFSCNISHLSSLIAQLEEKQQQPTRELLQDIGDTLSRAERIRIPEPWITPPDLQEKIHIFAQKCLFLTESLKQFTEKMQSDMEKIQELREAQLYSVDVTLDPDTAYPSLILSDNLRQVRYSYLQQDLPDNPERFNLFPCVLGSPCFIAGRHYWEVEVGDKAKWTIGVCEDSVCRKGGVTSAPQNGFWAVSLWYGKEYWALTSPMTALPLRTPLQRVGIFLDYDAGEVSFYNVTERCHTFTFSHATFCGPVRPYFSLSYSGGKSAAPLIICPMSGIDGFSGHVGNHGHSMETSP
partner: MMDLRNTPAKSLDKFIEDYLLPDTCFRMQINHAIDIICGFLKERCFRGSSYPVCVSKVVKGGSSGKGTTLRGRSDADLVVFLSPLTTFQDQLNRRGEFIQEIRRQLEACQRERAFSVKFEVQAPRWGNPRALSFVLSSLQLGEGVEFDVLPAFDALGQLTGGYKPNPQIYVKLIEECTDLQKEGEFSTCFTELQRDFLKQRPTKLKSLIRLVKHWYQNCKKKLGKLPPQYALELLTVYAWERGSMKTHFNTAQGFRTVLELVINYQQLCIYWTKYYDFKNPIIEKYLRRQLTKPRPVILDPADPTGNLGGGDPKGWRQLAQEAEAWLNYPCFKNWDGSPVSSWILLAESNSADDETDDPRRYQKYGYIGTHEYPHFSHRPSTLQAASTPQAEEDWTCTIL
B3: Tuftelin-interacting protein 11 (Homo sapiens), Q9UBB9 (parent)
chain: MSLSHLYRDGEGRIDDDDDERENFEITDWDLQNEFNPNRQRHWQTKEEATYGVWAERDSDDERPSFGGKRARDYSAPVNFISAGLKKGAAEEAELEDSDDEEKPVKQDDFPKDFGPRKLKTGGNFKPSQKGFAGGTKSFMDFGSWERHTKGIGQKLLQKMGYVPGRGLGKNAQGIINPIEAKQRKGKGAVGAYGSERTTQSMQDFPVVDSEEEAEEEFQKELSQWRKDPSGSKKKPKYSYKTVEELKAKGRISKKLTAPQKELSQVKVIDMTGREQKVYYSYSQISHKHNVPDDGLPLQSQQLPQSGKEAKAPGFALPELEHNLQLLIDLTEQEIIQNDRQLQYERDMVVNLFHELEKMTEVLDHEERVISNLSKVLEMVEECERRMQPDCSNPLTLDECARIFETLQDKYYEEYRMSDRVDLAVAIVYPLMKEYFKEWDPLKDCTYGTEIISKWKSLLENDQLLSHGGQDLSADAFHRLIWEVWMPFVRNIVTQWQPRNCDPMVDFLDSWVHIIPVWILDNILDQLIFPKLQKEVENWNPLTDTVPIHSWIHPWLPLMQARLEPLYSPIRSKLSSALQKWHPSDSSAKLILQPWKDVFTPGSWEAFMVKNIVPKLGMCLGELVINPHQQHMDAFYWVIDWEGMISVSSLVGLLEKHFFPKWLQVLCSWLSNSPNYEEITKWYLGWKSMFSDQVLAHPSVKDKFNEALDIMNRAVSSNVGAYMQPGARENIAYLTHTERRKDFQYEAMQERREAENMAQRGIGVAASSVPMNFKDLIETKAEEHNIVFMPVIGKRHEGKQLYTFGRIVIYIDRGVVFVQGEKTWVPTSLQSLIDMAK
partner: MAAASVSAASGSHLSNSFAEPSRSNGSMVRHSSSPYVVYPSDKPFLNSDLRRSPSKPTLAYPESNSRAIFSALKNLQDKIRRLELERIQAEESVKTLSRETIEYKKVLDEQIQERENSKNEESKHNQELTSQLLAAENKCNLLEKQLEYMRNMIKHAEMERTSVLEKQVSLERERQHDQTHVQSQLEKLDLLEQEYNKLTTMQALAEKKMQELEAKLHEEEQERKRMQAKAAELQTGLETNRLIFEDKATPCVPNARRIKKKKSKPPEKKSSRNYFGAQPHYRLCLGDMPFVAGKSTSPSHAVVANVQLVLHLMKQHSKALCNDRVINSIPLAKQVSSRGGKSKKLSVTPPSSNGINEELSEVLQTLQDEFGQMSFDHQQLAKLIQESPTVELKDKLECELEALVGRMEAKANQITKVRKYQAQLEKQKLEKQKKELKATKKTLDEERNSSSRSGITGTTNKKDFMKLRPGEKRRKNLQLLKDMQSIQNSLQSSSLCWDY
B4: Alpha-ketoglutarate-dependent dioxygenase alkB homolog 4 (Homo sapiens), Q9NXW9 (parent)
chain: MAAAAAETPEVLRECGCKGIRTCLICERQRGSDPPWELPPAKTYRFIYCSDTGWAVGTEESDFEGWAFPFPGVMLIEDFVTREEEAELVRLMDRDPWKLSQSGRRKQDYGPKVNFRKQKLKTEGFCGLPSFSREVVRRMGLYPGLEGFRPVEQCNLDYCPERGSAIDPHLDDAWLWGERLVSLNLLSPTVLSMCREAPGSLLLCSAPSAAPEALVDSVIAPSRSVLCQEVEVAIPLPARSLLVLTGAARHQWKHAIHRRHIEARRVCVTFRELSAEFGPGGRQQELGQELLRIALSFQGRPV
B5: Protein transport protein (Homo sapiens), Q15437 (parent)
chain: MATYLEFIQQNEERDGVRFSWNVWPSSRLEATRMVVPLACLLTPLKERPDLPPVQYEPVLCSRPTCKAVLNPLCQVDYRAKLWACNFCFQRNQFPPAYGGISEVNQPAELMPQFSTIEYVIQRGAQSPLIFLYVVDTCLEEDDLQALKESLQMSLSLLPPDALVGLITFGRMVQVHELSCEGISKSYVFRGTKDLTAKQIQDMLGLTKPAMPMQQARPAQPQEHPFASSRFLQPVHKIDMNLTDLLGELQRDPWPVTQGKRPLRSTGVALSIAVGLLEGTFPNTGARIMLFTGGPPTQGPGMVVGDELKIPIRSWHDIEKDNARFMKKATKHYEMLANRTAANGHCIDIYACALDQTGLLEMKCCANLTGGYMVMGDSFNTSLFKQTFQRIFTKDFNGDFRMAFGATLDVKTSRELKIAGAIGPCVSLNVKGPCVSENELGVGGTSQWKICGLDPTSTLGIYFEVVNQHNTPIPQGGRGAIQFVTHYQHSSTQRRIRVTTIARNWADVQSQLRHIEAAFDQEAAAVLMARLGVFRAESEEGPDVLRWLDRQLIRLCQKFGQYNKEDPTSFRLSDSFSLYPQFMFHLRRSPFLQVFNNSPDESSYYRHHFARQDLTQSLIMIQPILYSYSFHGPPEPVLLDSSSILADRILLMDTFFQIVIYLGETIAQWRKAGYQDMPEYENFKHLLQAPLDDAQEILQARFPMPRYINTEHGGSQARFLLSKVNPSQTHNNLYAWGQETGAPILTDDVSLQVFMDHLKKLAVSSAC
partner: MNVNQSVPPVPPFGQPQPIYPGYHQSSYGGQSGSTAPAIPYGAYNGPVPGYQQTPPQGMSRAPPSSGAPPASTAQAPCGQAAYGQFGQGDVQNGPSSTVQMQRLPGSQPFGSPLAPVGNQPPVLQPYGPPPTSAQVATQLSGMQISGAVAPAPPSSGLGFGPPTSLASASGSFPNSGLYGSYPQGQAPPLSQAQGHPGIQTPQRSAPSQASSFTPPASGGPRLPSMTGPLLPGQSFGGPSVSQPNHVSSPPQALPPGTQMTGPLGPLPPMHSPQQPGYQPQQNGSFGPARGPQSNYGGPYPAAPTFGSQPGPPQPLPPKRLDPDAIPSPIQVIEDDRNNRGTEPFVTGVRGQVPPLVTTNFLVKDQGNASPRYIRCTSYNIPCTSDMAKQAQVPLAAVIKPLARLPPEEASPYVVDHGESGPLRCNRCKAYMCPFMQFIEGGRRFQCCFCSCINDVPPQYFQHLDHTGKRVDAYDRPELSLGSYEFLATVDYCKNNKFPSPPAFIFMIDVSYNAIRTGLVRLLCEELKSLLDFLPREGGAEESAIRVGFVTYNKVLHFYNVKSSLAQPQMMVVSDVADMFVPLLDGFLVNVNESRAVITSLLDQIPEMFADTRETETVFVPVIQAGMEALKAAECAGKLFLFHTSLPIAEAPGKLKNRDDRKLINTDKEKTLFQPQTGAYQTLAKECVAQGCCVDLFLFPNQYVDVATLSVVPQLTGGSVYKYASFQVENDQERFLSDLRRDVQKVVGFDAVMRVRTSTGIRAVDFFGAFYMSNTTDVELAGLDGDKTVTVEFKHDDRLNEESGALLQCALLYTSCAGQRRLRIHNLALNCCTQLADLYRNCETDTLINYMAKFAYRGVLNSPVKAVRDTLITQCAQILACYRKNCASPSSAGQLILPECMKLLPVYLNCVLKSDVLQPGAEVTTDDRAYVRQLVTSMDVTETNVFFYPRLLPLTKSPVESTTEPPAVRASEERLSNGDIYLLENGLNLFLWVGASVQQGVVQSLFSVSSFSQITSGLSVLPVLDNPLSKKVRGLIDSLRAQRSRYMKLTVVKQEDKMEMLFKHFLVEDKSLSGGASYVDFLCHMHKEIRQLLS

Variants of: B1
Details: with dnal4_human DNAL4, O96015

Variant	effect of a mutation on the interaction
N33S	with no effect

Variants of: B2
Details: with oas1_human OAS1, P00973

Variant	effect of a mutation on the interaction
N355S	disrupting interaction strength

Variants of: B3
Details: with cep57_human CEP57, Q86XR8

Variant	effect of a mutation on the interaction
R8Q	with no effect
S688L	with no effect

Variants of: B4
Details: with dtx2_human DTX2, Q86UW9
Sequence of dtx2_human DTX2, Q86UW9 (Q86UW9 whole entry): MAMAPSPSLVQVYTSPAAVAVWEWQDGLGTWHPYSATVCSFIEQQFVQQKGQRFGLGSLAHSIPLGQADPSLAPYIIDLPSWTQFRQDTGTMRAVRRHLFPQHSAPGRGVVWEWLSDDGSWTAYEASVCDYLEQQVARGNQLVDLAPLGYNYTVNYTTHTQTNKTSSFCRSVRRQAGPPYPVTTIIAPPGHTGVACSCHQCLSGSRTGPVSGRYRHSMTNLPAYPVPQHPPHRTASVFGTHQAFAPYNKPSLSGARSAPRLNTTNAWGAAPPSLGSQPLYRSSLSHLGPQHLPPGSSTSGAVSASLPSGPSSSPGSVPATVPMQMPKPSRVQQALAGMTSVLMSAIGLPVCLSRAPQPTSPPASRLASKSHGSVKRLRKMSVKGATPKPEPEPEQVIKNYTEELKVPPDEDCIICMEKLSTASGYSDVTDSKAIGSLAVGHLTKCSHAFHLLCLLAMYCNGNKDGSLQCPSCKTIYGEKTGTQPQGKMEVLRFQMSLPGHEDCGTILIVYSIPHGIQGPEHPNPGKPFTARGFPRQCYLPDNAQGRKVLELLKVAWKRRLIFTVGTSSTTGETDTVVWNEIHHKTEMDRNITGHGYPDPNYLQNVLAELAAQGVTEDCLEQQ

Variant	effect of a mutation on the interaction
R239C	with no effect

Variants of: B5
Details: with sc24c_human SEC24C

Variant	effect of a mutation on the interaction
V426I	with no effect
